Results from article PMC1847943 (Molecular Systems Biology, 2007).

B1: KaiA (natural protein, Synechococcus elongatus PCC 7942, UniProt Q79PF6 1-284, looked up)
chain: MLSQIAICIWVESTAILQDCQRALSADRYQLQVCESGEMLLEYAQTHRDQIDCLILVAANPSFRAVVQQLCFEGVVVPAIVVGDRDSEDPDEPAKEQLYHSAELHLGIHQLEQLPYQVDAALAEFLRLAPVETMADHIMLMGANHDPELSSQQRDLAQRLQERLGYLGVYYKRDPDRFLRNLPAYESQKLHQAMQTSYREIVLSYFSPNSNLNQSIDNFVNMAFFADVPVTKVVEIHMELMDEFAKKLRVEGRSEDILLDYRLTLIDVIAHLCEMYRRSIPRET
B2: KaiB (natural protein, Synechococcus elongatus PCC 7942, UniProt Q79PF5 1-102, looked up)
chain: MSPRKTYILKLYVAGNTPNSVRALKTLKNILEVEFQGVYALKVIDVLKNPQLAEEDKILATPTLAKVLPLPVRRIIGDLSDREKVLIGLDLLYGELQDSDDF
B3: KaiC (natural protein, Synechococcus elongatus PCC 7942, UniProt Q79PF4 1-519, looked up)
chain: MTSAEMTSPNNNSEHQAIAKMRTMIEGFDDISHGGLPIGRSTLVSGTSGTGKTLFSIQFLYNGIIEFDEPGVFVTFEETPQDIIKNARSFGWDLAKLVDEGKLFILDASPDPEGQEVVGGFDLSALIERINYAIQKYRARRVSIDSVTSVFQQYDASSVVRRELFRLVARLKQIGATTVMTTERIEEYGPIARYGVEEFVSDNVVILRNVLEGERRRRTLEILKLRGTSHMKGEYPFTITDHGINIFPLGAMRLTQRSSNVRVSSGVVRLDEMCGGGFFKDSIILATGATGTGKTLLVSRFVENACANKERAILFAYEESRAQLLRNAYSWGMDFEEMERQNLLKIVCAYPESAGLEDHLQIIKSEINDFKPARIAIDSLSALARGVSNNAFRQFVIGVTGYAKQEEITGLFTNTSDQFMGAHSITDSHISTITDTIILLQYVEIRGEMSRAINVFKMRGSWHDKAIREFMISDKGPDIKDSFRNFERIISGSPTRITVDEKSELSRIVRGVQEKGPES
modifications: phosphorylation level changes over the incubation with KaiA, KaiB and ATP (autophosphorylation)

Target: the molecule itself
Test: native gel or EMSA

Protein	stoichiometry N
B1	2
B2	4
B3	6
